Assay [1] addresses T1, biotinylated peptide corresponding to the 17 N-terminal amino acid residues of huntingtin (Nt-HD) (UniProt P42858 1-17).
T1 construct: range 1-17; Synthetic peptide; Captured on streptavidin (beads, plates or a BIAcore chip); also called biotinylated Nt-HD; biotinylated HD-peptide
T1 peptide (looked up): MATLEKLMKAFESLKSF-biotin
The assay is described as follows: BIAcore 2000 surface plasmon resonance, C4 sFv at 60, 80 and 100 nM over biotinylated HD peptide on a streptavidin sensor chip.
Protocol: (§1) For regeneration of the surface after binding of intrabody, 5 μl of 50 mM NaOH containing 1 M NaCl was injected, resulting in a return to baseline. […] The koff was determined from the dissociation part of the sensorgram at the highest concentration of intrabody analyzed by using a flow rate of 20 μl/min. The Kd was calculated as koff/kₒₙ.
(§2) To characterize the precise binding properties of the intrabody of the invention, further qualitative and quantitative studies of sFv binding to immobilized antigen were conducted in vitro.

Assay [2] concerns the target T1, biotinylated peptide corresponding to …. Kind of assay: SPR, BIAcore 2000; HD peptide (1-17) with C-terminal biotin on a streptavidin chip, sFv in flow.
Protocol: as §1, §2
The target is the same in assay [3]. The assay is described as follows: SPR, BIAcore 2000; HD peptide (1-17) with C-terminal biotin on a streptavidin chip, sFv in flow; 1:1 Langmuir model. Background: Surface plasmon resonance follows binding to a sensor surface in real time, without labels.
Protocol: as §1, §2

No end group written: not given here.

B1: α-Nt-HD-C4 sFv (purified soluble sFv) (scFv)
scFv: QVQLQESGGGLVQPGGSLRLSCAASGFTFSSYSMSWVRQAPGKGLEWVAVISYDGSNKYYADSVKGRFTISRDNSKNTLYLQMNSLRAEDTAVYYCARDRYFDLWGRGTLVTVSSGGGGSGGGGSGGGGSQSALTQPASVSGSPGQSITISCTGTSSDIGAYNYVSWYQQYPGKAPKLLIYDVSNRPSGISNRFSGSKSGDTASLTISGLQAEDEADYYCSSFANSGPLFGGGTKVTVL
notes: Human sFv (VH-linker-VL) from a phage display library; Expressed in E. coli from pSYN-1 and purified on Ni-NTA; In the first ELISA screens it was used as bacterial supernatant from pHEN-1; Two subclones (clone 1, clone 2) were purified; they are treated here as the same molecule; also called N-HD-C4 sFv; anti-huntingtin intrabody C4 sFv; not shown: hexaHis tail from the pSYN-1 vector (sFv is also …)
For the molecule B1, in assay [1], the off-rate constant (koff) (usually the rate constant with which the complex falls apart) was determined as 0.0015 s⁻¹ and the kon (commonly a measure of how fast the partners come together) turned out to be 190000 M⁻¹ s⁻¹. In assay [2], this molecule gave a Ka of 1.3e+08 M⁻¹. In addition, the affinity in assay [3], expressed as Kd, was 7.9 nM.

These data come from US20050255113A1, “Methods and compositions for inhibiting polypeptide accumulation associated with neurological disorders” (New York State Department of Health and Abgenix, Inc., priority 1999, published 2005).
